Data on four molecules can be found in PMC6051998, “Steric interference from intrinsically disordered regions controls dynamin-related protein 1 self-assembly during mitochondrial fission” (Scientific Reports, 2018).

The target in series [1] is full-length Mff (mitochondrial fission factor), reconstituted in CL-free nanotubes or liposomes. Kind of series: cell-based or functional assay.
Series [2] concerns the molecule itself. Kind of series: SEC-MALS; full-length Drp1 WT and mutants, nucleotide-free, each loaded at 10 μM in 500 μl onto Superose 6 10/300 GL in Buffer A (20 mM HEPES pH 7.5, 150 mM KCl) with 1 mM DTT. (In gel filtration, larger molecules generally elute earlier.)
Series [3] deals with the molecule itself. The series is described as follows: SEC-MALS; included (soluble) fraction of Drp1ΔVD loaded at 6 μM onto Superose 6 10/300 GL.

“And” between values parts separate entries of the source, which are not always exact repeats. Equal entries are not always repeated.

B1: Drp1 R247A (full-length) (natural protein, human, UniProt O00429-4 1-699, looked up)
chain: MEALIPVINKLQDVFNTVGADIIQLPQIVVVGTQSSGKSSVLESLVGRDLLPRGTGIVTRRPLILQLVHVSQEDKRKTTGEENGVEAEEWGKFLHTKNKLYTDFDEIRQEIENETERISGNNKGVSPEPIHLKIFSPNVVNLTLVDLPGMTKVPVGDQPKDIELQIRELILRFISNPNSIILAVTAANTDMATSEALKISREVDPDGRRTLAVITKLDLMDAGTDAMDVLMGRVIPVKLGIIGVVNASQLDINNKKSVTDSIRDEYAFLQKKYPSLANRNGTKYLARTLNRLLMHHIRDCLPELKTRINVLAAQYQSLLNSYGEPVDDKSATLLQLITKFATEYCNTIEGTAKYIETSELCGGARICYIFHETFGRTLESVDPLGGLNTIDILTAIRNATGPRPALFVPEVSFELLVKRQIKRLEEPSLRCVELVHEEMQRIIQHCSNYSTQELLRFPKLHDAIVEVVTCLLRKRLPVTNEMVHNLVAIELAYINTKHPDFADACGLMNNNIEEQRRNRLARELPSAVSRDKVASGGGGVGDGVQEPTTGNWRGMLKTSKAEELLAEEKSKPIPIMPASPQKGHAVNLLDVPVPVARKLSAREQRDCEVIERLIKSYFLIVRKNIQDSVPKAVMHFLVNHVKDTLQSELVGQLYKSSLLDDLLTESEDMAQRRKEAADMLKALQGASQIIAEIRETHLW
notes: dynamin-related protein 1 (Drp1), human, full length, with R247A in the GTPase domain; source: E. coli BL21 Star (DE3), purified
Regarding B1, the “Mff-stimulated GTPase activity on NT compared to Drp1 WT” value in series [1] stood at 3 fold. For the same molecule, the stoichiometry N (in general, a count of units in the complex or per binding partner) in series [2] was 2 and 4.

B2: Drp1 G350D (full-length stalk L1N mutant) (natural protein, human, UniProt O00429-4 1-699, looked up)
chain: MEALIPVINKLQDVFNTVGADIIQLPQIVVVGTQSSGKSSVLESLVGRDLLPRGTGIVTRRPLILQLVHVSQEDKRKTTGEENGVEAEEWGKFLHTKNKLYTDFDEIRQEIENETERISGNNKGVSPEPIHLKIFSPNVVNLTLVDLPGMTKVPVGDQPKDIELQIRELILRFISNPNSIILAVTAANTDMATSEALKISREVDPDGRRTLAVITKLDLMDAGTDAMDVLMGRVIPVKLGIIGVVNRSQLDINNKKSVTDSIRDEYAFLQKKYPSLANRNGTKYLARTLNRLLMHHIRDCLPELKTRINVLAAQYQSLLNSYGEPVDDKSATLLQLITKFATEYCNTIEDTAKYIETSELCGGARICYIFHETFGRTLESVDPLGGLNTIDILTAIRNATGPRPALFVPEVSFELLVKRQIKRLEEPSLRCVELVHEEMQRIIQHCSNYSTQELLRFPKLHDAIVEVVTCLLRKRLPVTNEMVHNLVAIELAYINTKHPDFADACGLMNNNIEEQRRNRLARELPSAVSRDKVASGGGGVGDGVQEPTTGNWRGMLKTSKAEELLAEEKSKPIPIMPASPQKGHAVNLLDVPVPVARKLSAREQRDCEVIERLIKSYFLIVRKNIQDSVPKAVMHFLVNHVKDTLQSELVGQLYKSSLLDDLLTESEDMAQRRKEAADMLKALQGASQIIAEIRETHLW
notes: dynamin-related protein 1 (Drp1), human, short isoform (isoform 3, 699 a.a.) with G350D; source: E. coli BL21 Star (DE3), purified
For B2, the “stoichiometry N” value in series [2] was 2.

B3: full-length Drp1 WT (Drp1 short; human isoform 3; 699 a.a.) (natural protein, UniProt O00429-4 1-699, looked up)
chain: MEALIPVINKLQDVFNTVGADIIQLPQIVVVGTQSSGKSSVLESLVGRDLLPRGTGIVTRRPLILQLVHVSQEDKRKTTGEENGVEAEEWGKFLHTKNKLYTDFDEIRQEIENETERISGNNKGVSPEPIHLKIFSPNVVNLTLVDLPGMTKVPVGDQPKDIELQIRELILRFISNPNSIILAVTAANTDMATSEALKISREVDPDGRRTLAVITKLDLMDAGTDAMDVLMGRVIPVKLGIIGVVNRSQLDINNKKSVTDSIRDEYAFLQKKYPSLANRNGTKYLARTLNRLLMHHIRDCLPELKTRINVLAAQYQSLLNSYGEPVDDKSATLLQLITKFATEYCNTIEGTAKYIETSELCGGARICYIFHETFGRTLESVDPLGGLNTIDILTAIRNATGPRPALFVPEVSFELLVKRQIKRLEEPSLRCVELVHEEMQRIIQHCSNYSTQELLRFPKLHDAIVEVVTCLLRKRLPVTNEMVHNLVAIELAYINTKHPDFADACGLMNNNIEEQRRNRLARELPSAVSRDKVASGGGGVGDGVQEPTTGNWRGMLKTSKAEELLAEEKSKPIPIMPASPQKGHAVNLLDVPVPVARKLSAREQRDCEVIERLIKSYFLIVRKNIQDSVPKAVMHFLVNHVKDTLQSELVGQLYKSSLLDDLLTESEDMAQRRKEAADMLKALQGASQIIAEIRETHLW
notes: dynamin-related protein 1 (Drp1), human, short isoform; human isoform 3; 699 a.a; also called Drp1-short-80-loop; dynamin-related protein 1; source: E. coli BL21 Star (DE3), purified
As to B3, the “stoichiometry N” value in series [2] is 4 and 2.

B4: Drp1ΔVD (Δ514–602) (natural protein, human, UniProt O00429-4 1-699, looked up)
chain: MEALIPVINKLQDVFNTVGADIIQLPQIVVVGTQSSGKSSVLESLVGRDLLPRGTGIVTRRPLILQLVHVSQEDKRKTTGEENGVEAEEWGKFLHTKNKLYTDFDEIRQEIENETERISGNNKGVSPEPIHLKIFSPNVVNLTLVDLPGMTKVPVGDQPKDIELQIRELILRFISNPNSIILAVTAANTDMATSEALKISREVDPDGRRTLAVITKLDLMDAGTDAMDVLMGRVIPVKLGIIGVVNRSQLDINNKKSVTDSIRDEYAFLQKKYPSLANRNGTKYLARTLNRLLMHHIRDCLPELKTRINVLAAQYQSLLNSYGEPVDDKSATLLQLITKFATEYCNTIEGTAKYIETSELCGGARICYIFHETFGRTLESVDPLGGLNTIDILTAIRNATGPRPALFVPEVSFELLVKRQIKRLEEPSLRCVELVHEEMQRIIQHCSNYSTQELLRFPKLHDAIVEVVTCLLRKRLPVTNEMVHNLVAIELAYINTKHPDFADACGLMNNNIEEQRDCEVIERLIKSYFLIVRKNIQDSVPKAVMHFLVNHVKDTLQSELVGQLYKSSLLDDLLTESEDMAQRRKEAADMLKALQGASQIIAEIRETHLW
notes: dynamin-related protein 1 (Drp1), human, with the variable domain deleted (Δ514–602); ~70 kDa monomer; source: E. coli BL21 Star (DE3), purified
On to B4, for which the “stoichiometry N” value in series [3] was found to be 4.
